Here are results for 50 molecules from patent publication US20250215412A1 (NOVOZYMES A S, published 2025).

Where a chain is given by its changes, count along the chain named. In names and notes the source's numbering stands.

First the molecules themselves.
B1: Chryseobacterium sp-62563 propeptide K96V (protein)
chain: NQDPNLVAKESNETAMKDFGKTVPVGIEKEDGKFKISFMVTAQPYEIKDSKENAAYISMIKTAVENETPIHVFLKANTNEIAKVDKATDDDIRYFVSVFTKEVKEENRK
B2: Chryseobacterium sp-62563 propeptide K96N (protein)
chain: B1 chain with V96N
B3: Chryseobacterium sp-62563 propeptide P69S (protein)
chain: B1 chain with P69S, V96K
B4: Chryseobacterium sp-62563 propeptide K96L (protein)
chain: B1 chain with V96L
B5: Chryseobacterium sp-62563 propeptide F95H (protein)
chain: B1 chain with F95H, V96K
B6: Chryseobacterium sp-62563 propeptide K96I (protein)
chain: B1 chain with V96I
B7: Chryseobacterium sp-62563 propeptide I92A (protein)
chain: B1 chain with I92A, V96K
B8: Chryseobacterium sp-62563 propeptide E67V (protein)
chain: B1 chain with E67V, V96K
B9: Chryseobacterium sp-62563 propeptide F95T (protein)
chain: B1 chain with F95T, V96K
B10: Chryseobacterium sp-62563 propeptide K96E (protein)
chain: B1 chain with V96E
B11: Chryseobacterium sp-62563 propeptide F95A (protein)
chain: B1 chain with F95A, V96K
B12: Chryseobacterium sp-62563 propeptide E67W (protein)
chain: B1 chain with E67W, V96K
B13: Chryseobacterium sp-62563 propeptide K96C (protein)
chain: B1 chain with V96C
B14: Chryseobacterium sp-62563 propeptide F95M (protein)
chain: B1 chain with F95M, V96K
B15: Chryseobacterium sp-62563 propeptide P69T (protein)
chain: B1 chain with P69T, V96K
B16: Chryseobacterium sp-62563 propeptide Y94R (protein)
chain: B1 chain with Y94R, V96K
B17: Chryseobacterium sp-62563 propeptide T88I (protein)
chain: B1 chain with T88I, V96K
B18: Chryseobacterium sp-62563 propeptide K96H (protein)
chain: B1 chain with V96H
B19: Chryseobacterium sp-62563 propeptide F95I (protein)
chain: B1 chain with F95I, V96K
B20: Chryseobacterium sp-62563 propeptide D91G (protein)
chain: B1 chain with D91G, V96K
B21: Chryseobacterium sp-62563 propeptide F95S (protein)
chain: B1 chain with F95S, V96K
B22: Chryseobacterium sp-62563 propeptide F73E (protein)
chain: B1 chain with F73E, V96K
B23: Chryseobacterium sp-62563 propeptide K96F (protein)
chain: B1 chain with V96F
B24: Chryseobacterium sp-62563 propeptide K96T (protein)
chain: B1 chain with V96T
B25: Chryseobacterium sp-62563 propeptide T88G (protein)
chain: B1 chain with T88G, V96K
B26: Chryseobacterium sp-62563 propeptide F95L (protein)
chain: B1 chain with F95L, V96K
B27: Chryseobacterium sp-62563 propeptide I92S (protein)
chain: B1 chain with I92S, V96K
B28: Chryseobacterium sp-62563 propeptide F95N (protein)
chain: B1 chain with F95N, V96K
B29: Chryseobacterium sp-62563 propeptide T88H (protein)
chain: B1 chain with T88H, V96K
B30: Chryseobacterium sp-62563 propeptide I92M (protein)
chain: B1 chain with I92M, V96K
B31: Chryseobacterium sp-62563 propeptide D91S (protein)
chain: B1 chain with D91S, V96K
B32: Chryseobacterium sp-62563 propeptide T88V (protein)
chain: B1 chain with T88V, V96K
B33: Chryseobacterium sp-62563 propeptide F95Y (protein)
chain: B1 chain with F95Y, V96K
B34: Chryseobacterium sp-62563 propeptide T88K (protein)
chain: B1 chain with T88K, V96K
B35: Chryseobacterium sp-62563 propeptide F95R (protein)
chain: B1 chain with F95R, V96K
B36: Chryseobacterium sp-62563 propeptide F95K (protein)
chain: B1 chain with F95K, V96K
B37: Chryseobacterium sp-62563 propeptide T88R (protein)
chain: B1 chain with T88R, V96K
B38: Chryseobacterium sp-62563 propeptide E67T (protein)
chain: B1 chain with E67T, V96K
B39: Chryseobacterium sp-62563 propeptide I92L (protein)
chain: B1 chain with I92L, V96K
B40: Chryseobacterium sp-62563 propeptide I92G (protein)
chain: B1 chain with I92G, V96K
B41: Chryseobacterium sp-62563 propeptide D91H (protein)
chain: B1 chain with D91H, V96K
B42: Chryseobacterium sp-62563 propeptide D91M (protein)
chain: B1 chain with D91M, V96K
B43: Chryseobacterium sp-62563 propeptide I92K (protein)
chain: B1 chain with I92K, V96K
B44: Chryseobacterium sp-62563 propeptide T88F (protein)
chain: B1 chain with T88F, V96K
B45: Chryseobacterium sp-62563 propeptide F95W (protein)
chain: B1 chain with F95W, V96K
B46: Chryseobacterium sp-62563 propeptide Y94K (protein)
chain: B1 chain with Y94K, V96K
B47: Chryseobacterium sp-62563 propeptide K96M (protein)
chain: B1 chain with V96M
B48: Chryseobacterium sp-62563 propeptide F95V (protein)
chain: B1 chain with F95V, V96K
B49: Chryseobacterium sp-62563 propeptide D91Q (protein)
chain: B1 chain with D91Q, V96K
B50: Chryseobacterium sp-62563 propeptide K96Q (protein)
chain: B1 chain with V96Q

This assay concerns the target T1, Chryseobacterium sp-62563 deamidase polypeptide (second polypeptide, deamidase domain), wildtype (Chryseobacterium sp-62563).
T1 sequence: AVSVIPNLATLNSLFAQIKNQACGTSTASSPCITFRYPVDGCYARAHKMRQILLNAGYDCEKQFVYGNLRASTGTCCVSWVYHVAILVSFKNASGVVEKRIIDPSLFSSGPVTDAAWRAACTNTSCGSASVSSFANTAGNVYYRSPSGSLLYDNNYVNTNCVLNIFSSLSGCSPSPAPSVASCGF
The experiment in a line: cell-based or functional assay.
B1: the Relative activity of maturated deamidase (% initial rate) is 41.
The same measure, in the same setting: in the case of B2 it was 55.
Molecule B3 displayed a NanoDSF thermal unfolding temperature of 77.7 ° C.
B4 returned a Relative activity of maturated deamidase (% initial rate) of 50.
Still for that read-out and setting: in the case of B5 it was 76.
On the same count and under the same terms, in the case of B6 it was 71; in that of B7, 31.
As to B8, the Relative activity of maturated deamidase (% initial rate) was determined as 27.
Regarding B9, the Relative activity of maturated deamidase (% initial rate) was 93.
For B10, the Relative activity of maturated deamidase (% initial rate) is over 100.
Still for that read-out and setting: the same measure for B11: over 100; for B12: over 100.
Still for that read-out and setting: the same measure for B13: 95; for B14: 51.
As for B15, the NanoDSF thermal unfolding temperature was 78.5 ° C and the Relative activity of maturated deamidase (% initial rate) is 33.
Regarding B16, the Relative activity of maturated deamidase (% initial rate) stood at 52.
Regarding B17, the Relative activity of maturated deamidase (% initial rate) is 52.
For B18, the Relative activity of maturated deamidase (% initial rate) came to 30.
Consider B19, for which the Relative activity of maturated deamidase (% initial rate) amounted to 58.
Take B20: the Relative activity of maturated deamidase (% initial rate) was 56.
On the same count and under the same terms, the same measure for B21: over 100; for B22: 28; for B23: 95.
B24 registered a Relative activity of maturated deamidase (% initial rate) of 34.
Same read-out and setting: in the case of B25 it was 66.
Take B26: the Relative activity of maturated deamidase (% initial rate) turned out to be 61.
B27 displayed a Relative activity of maturated deamidase (% initial rate) of 40.
B28 returned a Relative activity of maturated deamidase (% initial rate) of 85.
In turn, B29 returned a Relative activity of maturated deamidase (% initial rate) of 41.
In the case of B30, the Relative activity of maturated deamidase (% initial rate) was 38.
Consider B31, for which the Relative activity of maturated deamidase (% initial rate) was found to be 48.
Same read-out and setting: in the case of B32 it was 51; in that of B33, 27.
Regarding B34, the Relative activity of maturated deamidase (% initial rate) is 33.
Molecule B35 displayed a Relative activity of maturated deamidase (% initial rate) of over 100.
Regarding B36, the Relative activity of maturated deamidase (% initial rate) is over 100.
Regarding B37, the Relative activity of maturated deamidase (% initial rate) worked out at 46.
In turn, B38 yielded a Relative activity of maturated deamidase (% initial rate) of 40.
B39 yielded a Relative activity of maturated deamidase (% initial rate) of 31.
B40: the Relative activity of maturated deamidase (% initial rate) was found to be 69.
Regarding B41, the Relative activity of maturated deamidase (% initial rate) came to 64.
The molecule B42 returned a Relative activity of maturated deamidase (% initial rate) of 31.
In turn, B43 showed a Relative activity of maturated deamidase (% initial rate) of 32.
Molecule B44 had a Relative activity of maturated deamidase (% initial rate) of 28.
The molecule B45 gave a Relative activity of maturated deamidase (% initial rate) of 58.
Still for that read-out and setting: in the case of B46 it was 49.
In turn, B47 registered a Relative activity of maturated deamidase (% initial rate) of 45.
Same read-out and setting: in the case of B48 it was 66.
Regarding B49, the Relative activity of maturated deamidase (% initial rate) came to 28.
B50 registered a Relative activity of maturated deamidase (% initial rate) of over 100.
